Data reported in patent US20090227777A1.

Target: ovalbumin-hippuric acid conjugate (OVA-HA) (UniProt P01012)
Assay: indirect ELISA on hippuric acid antigen, purified soluble scFv-E tag at 10-fold dilution, rabbit anti-E tag and goat anti-rabbit IgG-HRP detection

Chain of UniProt P01012 (P01012 2-386 limits assumed): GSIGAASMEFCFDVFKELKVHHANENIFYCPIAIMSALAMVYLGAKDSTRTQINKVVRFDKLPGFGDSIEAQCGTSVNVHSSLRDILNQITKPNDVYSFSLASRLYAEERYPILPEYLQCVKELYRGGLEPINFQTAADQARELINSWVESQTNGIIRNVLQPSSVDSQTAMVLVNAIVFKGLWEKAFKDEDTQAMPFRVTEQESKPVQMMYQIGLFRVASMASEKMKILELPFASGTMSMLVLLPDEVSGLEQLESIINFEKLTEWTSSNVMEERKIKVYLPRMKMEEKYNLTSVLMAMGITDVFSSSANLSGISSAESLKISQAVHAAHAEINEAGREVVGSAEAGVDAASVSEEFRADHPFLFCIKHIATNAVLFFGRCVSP

B1: soluble single chain variable fragment scFv-E tag derived from 4D31G111B7 (scFv)
scFv: AAQPAEVMLVESGASVKISCKASGYSFTGYYMHWVKQSHVKTLEWVGRITPYNGATNYNQNFKDKASLTVDKSSSTAYMEFHSLTSEDSAVYYCVRMYADVWGAGTSVTVSSVKTTPPSVYPLAPGGGGSGGGGSGGGGSEIVLTQSPSSLSASLGESVTLACRGASQDIGGRLNWLQQEADGTIKRLIYATSSLDSGVPKRFSGSRSGSDYSLTISSLESEDFVDYYCLQYDRSPYTFGGGTKLEIKRGDAAPTVAA
**Q.** For B1, which antibody titer is on record?
**A.** 0.516
